Measured values published in paper PMC3390401, “Phosphorylation-Dependent Interactions between Crb2 and Chk1 Are Essential for DNA Damage Checkpoint” (PLoS Genetics, 2012).
One block for each molecule: values may come before it. Non-standard residues stand in square brackets, D forms with d. No end group written: not given here. pS = N[C@@H](COP(=O)(O)O)C(=O)O

Tests used:
Chk1 = Chk1 (UniProt P34208); experiment: biotin-peptide streptavidin pull-down, Coomassie or immunoblot
[1] = target: Crb2(67–85)pT73pS80 peptide (S. pombe) (UniProt P87074); experiment: pull-down; Eluted Chk1-YFH incubated with 2 µg biotin-labeled peptide at 4°C for 2 h, peptides captured on streptavidin Dynabeads M-280, washed with lysis buffer (50 mM Hepes pH 7.5, 100 mM NaCl, 1 mM EDTA, 10% glycerol, 0.05% NP-40); eluates and input on 4%–20% SDS-PAGE, Coomassie staining
[2] = target: Crb2(67–85) peptide, unphosphorylated (S. pombe) (UniProt P87074); experiment: pull-down; Same peptide pull-down repeated; eluates and serial dilutions of Chk1-YFH input examined by immunoblotting with an anti-GFP antibody
[3] = target: Crb2(67–85)pT73pS80 peptide (S. pombe) (UniProt P87074); experiment: as above
[4] = target: Crb2(67–85)pT73 peptide (S. pombe) (UniProt P87074); experiment: as above
[5] = target: Crb2(67–85)pS80 peptide (S. pombe) (UniProt P87074); experiment: as above
His-GST-Crb2(521–778) = target: T1, His-GST-Crb2(521–778) (S. pombe, UniProt P87074 521-778); experiment: pull-down; His-GST-Crb2(521–778) incubated with H2A peptides, peptides pulled down by streptavidin Dynabeads, eluted by boiling in SDS loading buffer; 4%–20% SDS-PAGE, Coomassie staining; conditions: both partners purified
T1 construct: Crb2, S. pombe, residues 521-778 (the BRCT domains); also called BRCTs in Crb2; source: E. coli, purified with Ni-NTA beads; not shown: His, N-terminal, kept; GST, N-terminal, kept
T1 sequence (looked up): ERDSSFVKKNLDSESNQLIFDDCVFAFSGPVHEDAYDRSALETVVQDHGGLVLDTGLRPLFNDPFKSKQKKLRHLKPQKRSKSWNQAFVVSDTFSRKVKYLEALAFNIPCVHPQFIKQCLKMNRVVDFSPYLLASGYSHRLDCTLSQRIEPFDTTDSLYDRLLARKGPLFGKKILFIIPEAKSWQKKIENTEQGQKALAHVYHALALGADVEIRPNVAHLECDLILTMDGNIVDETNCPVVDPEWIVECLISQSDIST

other: share of Chk1 input pulled down (Chk1; reference: unphosphorylated peptide, sites S80): gained; reference lower than 0.08%
Molecule: Crb2 67-85 (from UniProt P87074) pS80 peptide

other: share of Chk1 input pulled down (Chk1; reference: unphosphorylated peptide, sites T73): gained; reference lower than 0.08%
Molecule: Crb2 67-85 (from UniProt P87074) pT73 peptide

other: share of Chk1 input pulled down (Chk1; reference: pS80 peptide, sites T73): stronger; reference about 1%
other: share of Chk1 input pulled down (Chk1; reference: pT73 peptide, sites S80): same; reference about 7%
Molecule: Crb2 67-85 (from UniProt P87074) pT73pS80 peptide

percent of input pulled down (% of the input) [1]: > 5
percent of input pulled down (% of the input) [2]: < 0.08
percent of input pulled down (% of the input) [3]: 7
percent of input pulled down (% of the input) [4]: 7
percent of input pulled down (% of the input) [5]: 1
Molecule: YFP-Flag-His6 (YFH)-tagged Chk1 (from UniProt P34208 1-496) (enzyme)

binding result (His-GST-Crb2(521–778)): binds
B1: Hta1(120–132-pS129) peptide (peptide, UniProt P04909 120-132, looked up)
peptide: KTSGRTGKP[pS]QEL
notes: Histone H2A Hta1, S. pombe, residues 120-132; also called γH2A peptide; phosphorylated histone H2A peptide
